Results published in PMC8204342, “Dual arginine recognition of LRRK2 phosphorylated Rab GTPases” (Biophysical Journal, 2021).
Where a chain is given by its changes, count along the chain named. Numbers in names are those of the source.

B1: Rab8a(Q67L + T72E), phosphomimetic mutant, residues 1-181 (natural protein, human, UniProt P61006 1-181, looked up)
chain: MAKTYDYLFKLLLIGDSGVGKTCVLFRFSEDAFNSTFISTIGIDFKIRTIELDGKRIKLQIWDTAGLERFREITTAYYRGAMGIMLVYDITNEKSFDNIRNWIRNIEEHASADVEKMILGNKCDVNDKRQVSKERGEKLALDYGIKFMETSAKANINVENAFFTLARDIKAKMDKKLEGNS
notes: Rab8a, human, residues 1-181, Q67L + T72E; Tag removed with thrombin; also called Rab8^TE; Rab8TE; source: E. coli, purified (Ni2+-agarose, Superdex 75); not shown: His6, N-terminal, cleaved
B2: His6-RILPL2 129-165 synthetic peptide (minimal Rab-binding domain) (peptide, UniProt Q969X0 129-165, looked up)
chain: NRPRFTLQELRDVLQERNKLKSQLLVVQEELQCYKSG
notes: source: synthetic peptide (GenScript); not shown: His6, N-terminal, kept
B3: pRab8a(Q67L), human Rab8a residues 1-181 phosphorylated at T72, GTP-bound (natural protein, UniProt P61006 1-181, looked up)
chain: B1 chain with E72T
modifications: phosphothreonine at 72 (pT72)
notes: Tag removed with thrombin (pET28a, NdeI/BamHI); also called pRab8(Q67L); phospho-Rab8a; source: E. coli, purified (Ni2+-agarose, Superdex 75), phosphorylated in vitro by MST3 kinase, separated on MonoS; not shown: His6, N-terminal, cleaved
B4: RILPL2 extended Rab-binding domain, residues 117-165, tag cleaved (domain or fragment, human, UniProt Q969X0 117-165, looked up)
chain: GPNKMVVDLTDPNRPRFTLQELRDVLQERNKLKSQLLVVQEELQCYKSG
notes: Parallel coiled-coil dimer in the crystal; source: E. coli BL21(DE3), purified (Ni2+-agarose, TEV cleavage, MonoS); not shown: His6, N-terminal, cleaved; MBP, N-terminal, cleaved

What was measured:
[1] = target: B2; experiment: ITC; Rab8^TE/pRab8a (400-600 uM) injected into RILPL2 (40-60 uM); 20 mM Tris-HCl, 150 mM NaCl, 5 mM MgCl2, 1 mM DTT, pH 7.5; triplicate; settings: both partners purified
[2] = target: B3; experiment: as above; settings: both partners purified
[3] = target: B1; experiment: as above; settings: both partners purified
[4] = target: the molecule itself; experiment: crystal structure; Rab8^TE:RL2^129, 1:2 molar ratio protein/peptide, 12 mg/mL; 100 mM HEPES pH 7, 10% PEG 4000, 10% 2-propanol; 1.7 A
[5] = target: B4; experiment: ITC; Rab8^TE/pRab8a (400-600 uM) injected into RILPL2 (40-60 uM); 20 mM Tris-HCl, 150 mM NaCl, 5 mM MgCl2, 1 mM DTT, pH 7.5; triplicate; settings: both partners purified
[6] = target: T1, Full-length RILPL2 as used in calorimetry (human, UniProt Q969X0 1-211); experiment: as above; settings: both partners purified
T1 construct: also called RL2-FL
T1 sequence (looked up): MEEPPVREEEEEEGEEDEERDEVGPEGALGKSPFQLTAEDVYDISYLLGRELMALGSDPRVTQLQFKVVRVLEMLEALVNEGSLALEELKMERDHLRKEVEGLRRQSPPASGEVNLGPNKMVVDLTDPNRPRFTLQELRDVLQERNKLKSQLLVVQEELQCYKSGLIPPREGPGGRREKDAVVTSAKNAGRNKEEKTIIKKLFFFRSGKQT

[7] = target: the molecule itself; experiment: crystal structure; pRab8(Q67L):RL2^117, 1:1 molar ratio, 5 mg/mL; 150 mM DL-malic acid, 20% PEG3350; 1.9 A

B1
dH [1]: -2.7 kcal/mol | stoichiometry N [1]: 1.03

B2
Kd [2]: 3300 nM | Kd [3]: 3.4 µM | binding result [4]: binds

B3
dH [5]: -7.4 kcal/mol | stoichiometry N [5]: 1.1 | Kd [6]: 1400 nM | dH [6]: -1.4 kcal/mol | stoichiometry N [6]: 1.04 | dH [1]: -5.1 kcal/mol | stoichiometry N [1]: 0.92

B4
Kd [2]: 540 nM | binding result [7]: binds
